Here are results for 16 molecules from patent publication US20250049939A1 (TUBULIS, published 2025).

Positions count from the first letter of the chain named.

The chains are these.
B1: Humanized clone 13 of 20D9 (VH3 + VK1; HC-LALA, same as Clone #3 but with LALA mutation in HC constant region) (antibody, human IgG1, kappa, L234A L235A)
heavy: not shown
light: DIQMTQSPSVLSASVGDRVTINCRASQNINKELNWYQQKLGEAPKLLIYNTNNLQSGVPSRFSGSGSGTDYTLTISSLQPEDVATYFCFQHKSWPLTFGSGTKLEIKRTVAAPSVFIFPPSDEQLKSGTASVVCLLNNFYPREAKVQWKVDNALQSGNSQESVTEQDSKDSTYSLSSTLTLSKADYEKHKVYACEVTHQGLSSPVTKSFNRGEC
notes: also called #3-LALA; #3-LALA mab
B2: #5 (antibody, human IgG1, kappa, V domains shown)
VH: QVMLVESGGGVVQPGRSLRLSCAASGFTFNNYWMTWVRQAPGKGLEWIASITKTGGGTYYPDSVKGRFTISRDNAKSTLYLQMNSLRSEDTATYYCTTLQQLGVMDAWGQGASVTVSS
VL: DIQMTQSPSVLSASVGDRVTITCRASQNINKELNWYQQKLGKAPKLLIYNTNNLQSGVPSRFSGSGSGTDFTLTISSLQPEDFATYYCFQHKSWPLTFGSGTKLEIKR
notes: also called Humanized clone 5 of 20D9 (VH1 + VK2); Clone #5
B3: Humanized clone 1 of 20D9 (VH1 + VK1) (antibody, human IgG1, kappa, V domains shown)
VH: B2 VH
VL: B2 VL with T22N, K42E, F71Y, F83V, Y87F
B4: #12 (antibody, human IgG1, kappa, V domains shown)
VH: B2 VH with M3Q, V37I, P61A, A75S, S77N, S88A, T93V, A112T, S113L
VL: B2 VL with V10S, N28S, L40P, S100Q
notes: also called Humanized clone 12 of 20D9 (VH4 + VK3); Clone #12
B5: #10 (antibody, human IgG1, kappa, V domains shown)
VH: B2 VH with A75S, S88A
VL: B2 VL with V10S, N28S, L40P, S100Q
notes: also called Humanized clone 10 of 20D9 (VH2 + VK3); Clone #10
B6: #8 (antibody, human IgG1, kappa, V domains shown)
VH: B2 VH with M3Q, V37I, P61A, A75S, S77N, S88A, T93V, A112T, S113L
VL: B2 VL
notes: also called Humanized clone 8 of 20D9 (VH4 + VK2); Clone #8
B7: #9 (antibody, human IgG1, kappa, V domains shown)
VH: B2 VH
VL: B2 VL with V10S, N28S, L40P, S100Q
notes: also called Humanized clone 9 of 20D9 (VH1 + VK3); Clone #9
B8: Humanized clone 4 of 20D9 (VH4 + VK1) (antibody, human IgG1, kappa, V domains shown)
VH: B2 VH with M3Q, V37I, P61A, A75S, S77N, S88A, T93V, A112T, S113L
VL: B2 VL with T22N, K42E, F71Y, F83V, Y87F
B9: #11 (antibody, human IgG1, kappa, V domains shown)
VH: B2 VH with M3Q, P61A, A75S, S77N, S88A, T93V, A112T, S113L
VL: B2 VL with V10S, N28S, L40P, S100Q
notes: also called Humanized clone 11 of 20D9 (VH3 + VK3); Clone #11
B10: #6 (antibody, human IgG1, kappa, V domains shown)
VH: B2 VH with A75S, S88A
VL: B2 VL
notes: also called Humanized clone 6 of 20D9 (VH2 + VK2); Clone #6
B11: #7 (antibody, human IgG1, kappa, V domains shown)
VH: B2 VH with M3Q, P61A, A75S, S77N, S88A, T93V, A112T, S113L
VL: B2 VL
notes: also called Humanized clone 7 of 20D9 (printed as VH3 + VK29); Clone #7
B12: Humanized clone 2 of 20D9 (VH2 + VK1) (antibody, human IgG1, kappa, V domains shown)
VH: B2 VH with A75S, S88A
VL: B2 VL with T22N, K42E, F71Y, F83V, Y87F
B13: 30B12 chimeric anti-FLT3 monoclonal antibody (antibody, V domains shown)
VH: QVQLKVSGPGLVQPSQTLSLTCAVSGFSLSNYHVSWVRQPPGKGLEWIAAISSGGSTYYNSPLKSRLSISRDTSKSQVFLKMNSLQTEDTAIYFCTGEDGYTFGNVMDAWGQGASVTVSS
VL: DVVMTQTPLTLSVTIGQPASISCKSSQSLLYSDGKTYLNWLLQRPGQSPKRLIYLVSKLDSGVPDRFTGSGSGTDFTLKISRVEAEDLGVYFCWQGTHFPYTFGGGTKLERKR
B14: 4B12 chimeric anti-FLT3 monoclonal antibody (antibody, V domains shown)
VH: QVQLQQSGPGLVQPSQTLSLTCTVSGFSLTSYNVNWVRQPPGKGLEWIGAMWRGGGTDYNPALKSRLSISRDTSKSQVFLKMNRLQTEDTAIYFCTRGFGDYWGQGVMVTVSS
VL: DIQMTQTPLSLSVAIGQSASISCKSSQSLKYSDGKTYLNWVFQSPGQSPKRLIYQVSKLDSGVPDRFSGTGSETDFTLKISRVEAEDLGVYYCCQGSYSPSTFGAGTKLELKR
notes: also called 4B12 mab
B15: 29H1 chimeric anti-FLT3 monoclonal antibody (antibody, V domains shown)
VH: EVKLEESGGGLVQPGGSMKFFCVASGFTFSNYWMNWVRQSPEKGLEWVAQIKLKSDNYATRYAESVKGRFTISRDDSKSSVNLQMNNLRAEDTGIYYCTVSLARSDYWGQGTTLTVSS
VL: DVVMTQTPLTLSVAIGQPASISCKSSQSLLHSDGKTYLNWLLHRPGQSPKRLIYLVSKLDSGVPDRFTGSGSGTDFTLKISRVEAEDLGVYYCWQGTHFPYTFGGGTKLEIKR
B16: 27E7 chimeric anti-FLT3 monoclonal antibody (antibody, V domains shown)
VH: B15 VH with G10D, F20L, F21S, S30R, K52R, R61H, I72M, N82Y, N87T
VL: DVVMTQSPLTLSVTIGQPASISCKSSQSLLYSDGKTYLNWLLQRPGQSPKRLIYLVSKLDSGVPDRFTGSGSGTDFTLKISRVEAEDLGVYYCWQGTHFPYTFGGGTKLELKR

T7 sequence (P12314 16-374): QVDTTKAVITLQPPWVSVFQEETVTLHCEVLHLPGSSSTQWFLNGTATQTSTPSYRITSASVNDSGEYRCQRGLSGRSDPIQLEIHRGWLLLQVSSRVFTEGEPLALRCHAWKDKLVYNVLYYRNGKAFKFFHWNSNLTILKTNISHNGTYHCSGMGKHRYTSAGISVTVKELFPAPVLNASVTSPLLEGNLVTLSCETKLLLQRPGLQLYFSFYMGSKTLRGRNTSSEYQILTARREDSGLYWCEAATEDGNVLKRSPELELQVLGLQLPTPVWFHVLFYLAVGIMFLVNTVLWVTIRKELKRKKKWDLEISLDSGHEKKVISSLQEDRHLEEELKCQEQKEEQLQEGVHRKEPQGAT

One assay deals with T1, VEGFR-2 on Ba/F3 cells (UniProt P35968 20-1356, limits assumed).
T1 construct: whole, on cells
T1 sequence (P35968 20-1356 limits assumed): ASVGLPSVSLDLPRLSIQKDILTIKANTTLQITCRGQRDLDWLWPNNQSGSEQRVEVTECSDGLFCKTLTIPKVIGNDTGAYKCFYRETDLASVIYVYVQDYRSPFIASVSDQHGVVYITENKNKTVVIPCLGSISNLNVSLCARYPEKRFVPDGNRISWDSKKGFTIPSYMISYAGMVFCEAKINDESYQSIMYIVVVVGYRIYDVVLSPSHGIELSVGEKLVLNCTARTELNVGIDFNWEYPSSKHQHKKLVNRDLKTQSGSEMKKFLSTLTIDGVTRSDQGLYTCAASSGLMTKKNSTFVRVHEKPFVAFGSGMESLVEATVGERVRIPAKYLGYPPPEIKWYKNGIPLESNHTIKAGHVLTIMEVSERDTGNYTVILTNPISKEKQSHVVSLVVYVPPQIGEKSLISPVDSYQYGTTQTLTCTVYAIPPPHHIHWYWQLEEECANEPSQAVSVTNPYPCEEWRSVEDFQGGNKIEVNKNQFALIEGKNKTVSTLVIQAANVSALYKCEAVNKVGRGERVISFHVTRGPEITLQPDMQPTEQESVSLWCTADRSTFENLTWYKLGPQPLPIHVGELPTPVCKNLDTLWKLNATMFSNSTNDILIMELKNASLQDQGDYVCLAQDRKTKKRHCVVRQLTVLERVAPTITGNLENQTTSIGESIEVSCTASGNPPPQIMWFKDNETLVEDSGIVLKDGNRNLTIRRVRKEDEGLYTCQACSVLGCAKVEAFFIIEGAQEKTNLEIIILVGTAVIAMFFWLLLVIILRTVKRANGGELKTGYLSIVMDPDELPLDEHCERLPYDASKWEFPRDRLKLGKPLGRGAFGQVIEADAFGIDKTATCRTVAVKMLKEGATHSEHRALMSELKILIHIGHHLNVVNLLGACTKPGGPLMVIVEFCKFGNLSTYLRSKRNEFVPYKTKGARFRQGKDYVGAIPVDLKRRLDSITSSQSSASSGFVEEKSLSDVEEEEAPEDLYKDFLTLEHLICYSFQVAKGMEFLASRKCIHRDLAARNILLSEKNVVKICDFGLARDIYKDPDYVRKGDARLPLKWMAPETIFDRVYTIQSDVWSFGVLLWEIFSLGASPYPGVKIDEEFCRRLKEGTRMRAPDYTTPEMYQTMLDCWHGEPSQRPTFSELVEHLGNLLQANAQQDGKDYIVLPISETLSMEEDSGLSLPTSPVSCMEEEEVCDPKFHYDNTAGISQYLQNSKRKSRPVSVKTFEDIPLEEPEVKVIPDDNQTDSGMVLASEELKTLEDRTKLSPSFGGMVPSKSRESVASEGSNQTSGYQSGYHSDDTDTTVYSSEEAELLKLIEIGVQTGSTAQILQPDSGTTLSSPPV
Briefly: flow cytometry, cell surface binding to Ba/F3 pMIY cells expressing VEGFR, MFI ratio normalized to IgG1, mean ± s.d. of n=3.
Consider B1, for which the binding result is listed as “no binding”.

The target of the next assay is T2, PDGFRα on Ba/F3 cells (UniProt P16234 24-1089, limits assumed).
T2 construct: whole, on cells
T2 sequence (P16234 24-1089 limits assumed): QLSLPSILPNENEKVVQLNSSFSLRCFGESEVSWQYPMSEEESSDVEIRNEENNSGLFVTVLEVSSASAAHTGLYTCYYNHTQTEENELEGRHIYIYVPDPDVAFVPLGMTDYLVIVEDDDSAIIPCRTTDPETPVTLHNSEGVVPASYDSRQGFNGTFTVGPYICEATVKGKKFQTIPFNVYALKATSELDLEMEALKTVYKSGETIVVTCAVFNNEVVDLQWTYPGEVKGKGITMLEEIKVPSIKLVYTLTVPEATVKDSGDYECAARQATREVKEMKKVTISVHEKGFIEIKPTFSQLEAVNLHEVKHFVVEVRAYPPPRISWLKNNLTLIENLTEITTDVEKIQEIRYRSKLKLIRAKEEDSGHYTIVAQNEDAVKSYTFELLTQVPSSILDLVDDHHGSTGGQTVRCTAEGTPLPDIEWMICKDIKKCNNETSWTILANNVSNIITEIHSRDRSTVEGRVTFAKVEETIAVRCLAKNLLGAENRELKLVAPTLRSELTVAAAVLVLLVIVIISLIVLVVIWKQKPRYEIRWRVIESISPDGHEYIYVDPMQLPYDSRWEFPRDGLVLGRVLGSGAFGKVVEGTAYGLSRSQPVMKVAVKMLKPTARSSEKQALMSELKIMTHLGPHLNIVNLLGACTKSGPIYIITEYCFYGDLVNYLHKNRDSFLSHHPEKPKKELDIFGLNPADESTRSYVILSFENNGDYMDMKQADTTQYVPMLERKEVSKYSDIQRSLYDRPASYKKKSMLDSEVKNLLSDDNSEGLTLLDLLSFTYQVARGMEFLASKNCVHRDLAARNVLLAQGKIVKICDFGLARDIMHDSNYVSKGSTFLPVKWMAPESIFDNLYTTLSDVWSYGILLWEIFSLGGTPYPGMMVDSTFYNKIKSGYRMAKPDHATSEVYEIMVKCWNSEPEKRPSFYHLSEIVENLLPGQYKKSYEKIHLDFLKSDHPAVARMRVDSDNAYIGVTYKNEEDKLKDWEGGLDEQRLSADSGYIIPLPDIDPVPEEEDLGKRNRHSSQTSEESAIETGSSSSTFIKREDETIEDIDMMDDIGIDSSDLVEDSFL
As to the kind of experiment: flow cytometry, cell surface binding to Ba/F3 pMIY cells expressing PDGFRα, MFI ratio normalized to IgG1, mean ± s.d. of n=3.
As for B1, the binding result is listed as “no binding”.

For a further assay, the target named is CD16 (Fc gamma receptor) on Ba/F3 cells (human, UniProt P08637 17-254). As to the kind of experiment: flow cytometry, cell surface binding to Ba/F3-pMIY cells expressing CD16, specific MFI, mean ± s.d. of n=3.
Sequence of CD16 (Fc gamma receptor) on Ba/F3 cells (P08637 17-254 limits assumed): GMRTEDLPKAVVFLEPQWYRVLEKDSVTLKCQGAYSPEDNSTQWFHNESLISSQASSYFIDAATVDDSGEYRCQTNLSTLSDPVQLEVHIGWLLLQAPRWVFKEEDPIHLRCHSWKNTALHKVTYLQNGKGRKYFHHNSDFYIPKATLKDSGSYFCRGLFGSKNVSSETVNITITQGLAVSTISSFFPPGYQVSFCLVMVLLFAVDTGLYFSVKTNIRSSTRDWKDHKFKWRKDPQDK
Take B1: the binding result is “no binding”.

A further assay has as its target T3, recombinant human FLT3 protein (human, UniProt P36888 27-541).
T3 construct: also called recombinant FLT3 protein; human recombinant FLT3 protein (10445-H08H, Sino Biological)
T3 sequence: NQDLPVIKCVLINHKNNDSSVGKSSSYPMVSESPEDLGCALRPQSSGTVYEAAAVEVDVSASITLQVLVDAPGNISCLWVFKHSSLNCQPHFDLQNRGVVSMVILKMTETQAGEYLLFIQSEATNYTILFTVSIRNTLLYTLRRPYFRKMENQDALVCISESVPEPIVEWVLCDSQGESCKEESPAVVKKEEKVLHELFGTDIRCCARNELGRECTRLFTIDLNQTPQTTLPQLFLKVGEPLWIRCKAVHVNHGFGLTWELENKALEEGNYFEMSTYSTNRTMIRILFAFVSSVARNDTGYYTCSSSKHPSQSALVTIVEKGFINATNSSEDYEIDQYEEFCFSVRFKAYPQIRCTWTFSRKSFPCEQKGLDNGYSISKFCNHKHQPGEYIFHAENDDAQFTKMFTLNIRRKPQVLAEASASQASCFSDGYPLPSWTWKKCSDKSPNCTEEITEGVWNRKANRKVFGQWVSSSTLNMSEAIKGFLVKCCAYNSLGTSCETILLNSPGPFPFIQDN
Briefly: ELISA with recombinant human FLT3 coated to the plate (results of FIG. 13 summarized). The procedure: (§1) Maxisorp plates were coated with human recombinant FLT3 protein (10445-H08H, Sino Biological). […] For detection, Attophos Fluorescent Substrate System (S1000, Promega) was applied. The fluorescence was read with excitation of 405 nm and emission at 500-550 nm. The calculation of the dissociation constant KD was performed using GraphPad Prism version 9.4.0.
The 12 clones were subsequently analysed in ELISA assays (FIG. 13). Therefore, recombinant human FLT3 was coated on plates and incubated with the antibody candidates. […] Mean±s.d. of n=3 biological replicates.
For the molecule B2, the Kd is 0.0293 mg/L.

As to B3, the Kd came out at 0.0114 mg/L.

As for B4, the Kd stood at 0.0553 mg/L.

In the case of B5, the Kd worked out at 0.0778 mg/L.

Take B6: the Kd was 0.0293 mg/L.

Regarding B7, the Kd came out at 0.0834 mg/L.

Turning to B8, the equilibrium dissociation constant (Kd) was 0.011 mg/L.

For B9, the Kd is 0.112 mg/L.

With B10, the Kd amounted to 0.0335 mg/L.

As to B11, the Kd turned out to be 0.0371 mg/L.

B12: the Kd amounted to 0.0114 mg/L.

In another assay the target is T4, c-KIT on Ba/F3 cells (UniProt P10721 26-976, limits assumed).
T4 construct: whole, on cells
T4 sequence (P10721 26-976 limits assumed): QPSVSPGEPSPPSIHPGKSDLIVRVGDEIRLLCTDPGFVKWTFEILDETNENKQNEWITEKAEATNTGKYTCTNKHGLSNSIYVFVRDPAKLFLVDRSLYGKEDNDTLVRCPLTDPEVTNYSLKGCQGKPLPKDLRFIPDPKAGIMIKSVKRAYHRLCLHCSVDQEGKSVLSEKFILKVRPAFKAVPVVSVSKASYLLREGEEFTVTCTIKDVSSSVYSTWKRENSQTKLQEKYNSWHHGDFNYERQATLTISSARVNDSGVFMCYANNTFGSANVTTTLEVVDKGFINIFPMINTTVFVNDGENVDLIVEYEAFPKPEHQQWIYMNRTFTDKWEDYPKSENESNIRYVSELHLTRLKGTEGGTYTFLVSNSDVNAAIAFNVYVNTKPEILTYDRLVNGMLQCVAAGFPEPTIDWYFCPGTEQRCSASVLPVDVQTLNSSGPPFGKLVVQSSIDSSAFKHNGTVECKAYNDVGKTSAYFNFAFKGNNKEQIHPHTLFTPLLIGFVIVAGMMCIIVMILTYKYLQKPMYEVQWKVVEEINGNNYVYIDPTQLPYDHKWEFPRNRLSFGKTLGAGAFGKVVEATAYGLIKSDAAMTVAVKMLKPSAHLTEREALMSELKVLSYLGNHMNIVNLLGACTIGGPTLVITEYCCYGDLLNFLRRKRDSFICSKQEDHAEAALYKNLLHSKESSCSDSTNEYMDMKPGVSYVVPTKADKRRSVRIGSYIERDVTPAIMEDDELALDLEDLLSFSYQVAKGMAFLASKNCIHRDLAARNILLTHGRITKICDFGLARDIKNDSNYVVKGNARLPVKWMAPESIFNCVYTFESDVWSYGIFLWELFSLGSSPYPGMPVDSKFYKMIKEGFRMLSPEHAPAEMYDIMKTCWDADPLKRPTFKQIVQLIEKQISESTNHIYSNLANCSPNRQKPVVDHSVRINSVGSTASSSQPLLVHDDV
As to the kind of experiment: flow cytometry, cell surface binding to Ba/F3 pMIY cells expressing c-KIT, MFI ratio normalized to IgG1, mean ± s.d. of n=3.
As for B1, the binding result is reported as “no binding”.

The target of a further assay is T5, human wildtype FLT3 expressed on Ba/F3 cells (human, UniProt P36888 27-993).
T5 construct: also called hFLT3 wt; Ba/F3-FLT3
T5 sequence: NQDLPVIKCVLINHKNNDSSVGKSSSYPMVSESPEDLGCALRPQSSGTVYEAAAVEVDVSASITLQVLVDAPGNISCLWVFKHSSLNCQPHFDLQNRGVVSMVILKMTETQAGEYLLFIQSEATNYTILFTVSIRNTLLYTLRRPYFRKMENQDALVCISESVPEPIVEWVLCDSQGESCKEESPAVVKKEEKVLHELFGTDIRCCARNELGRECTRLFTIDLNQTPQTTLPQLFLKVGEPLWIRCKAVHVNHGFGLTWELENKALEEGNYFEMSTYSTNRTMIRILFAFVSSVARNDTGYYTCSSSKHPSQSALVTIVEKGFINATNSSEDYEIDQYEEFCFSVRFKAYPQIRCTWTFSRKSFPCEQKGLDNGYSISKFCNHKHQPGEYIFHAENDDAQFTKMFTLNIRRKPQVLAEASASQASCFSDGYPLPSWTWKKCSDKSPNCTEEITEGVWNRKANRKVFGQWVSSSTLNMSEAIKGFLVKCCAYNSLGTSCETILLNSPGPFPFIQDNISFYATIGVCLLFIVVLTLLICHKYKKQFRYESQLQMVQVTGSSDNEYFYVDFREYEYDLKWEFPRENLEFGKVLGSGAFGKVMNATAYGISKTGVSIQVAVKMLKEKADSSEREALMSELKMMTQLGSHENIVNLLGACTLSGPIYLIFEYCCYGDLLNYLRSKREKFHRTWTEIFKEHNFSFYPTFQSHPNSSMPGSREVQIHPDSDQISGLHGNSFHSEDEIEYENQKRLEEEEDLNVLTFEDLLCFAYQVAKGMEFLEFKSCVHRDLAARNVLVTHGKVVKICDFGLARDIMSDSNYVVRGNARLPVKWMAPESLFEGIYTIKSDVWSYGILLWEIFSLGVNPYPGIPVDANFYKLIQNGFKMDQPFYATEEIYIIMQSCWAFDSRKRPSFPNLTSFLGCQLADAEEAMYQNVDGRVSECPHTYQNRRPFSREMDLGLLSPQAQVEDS
Briefly: flow cytometry, cell surface binding to Ba/F3 cells expressing human FLT3 (results of FIG. 14 summarized).
Take B2: the “Binding to human FLT3 (MFI ratio to IgG1 control)” value came to 42.4.

With B3, the “Binding to human FLT3 (MFI ratio to IgG1 control)” value was 96.

Take B4: the “Binding to human FLT3 (MFI ratio to IgG1 control)” value turned out to be 24.8.

For B5, the “Binding to human FLT3 (MFI ratio to IgG1 control)” value is 20.2.

With B6, the “Binding to human FLT3 (MFI ratio to IgG1 control)” value was 43.7.

Regarding B7, the “Binding to human FLT3 (MFI ratio to IgG1 control)” value stood at 21.3.

With B8, the “Binding to human FLT3 (MFI ratio to IgG1 control)” value was determined as 98.2.

As to B9, the “Binding to human FLT3 (MFI ratio to IgG1 control)” value was found to be 20.5.

Turning to B10, the “Binding to human FLT3 (MFI ratio to IgG1 control)” value amounted to 41.3.

B11: the “Binding to human FLT3 (MFI ratio to IgG1 control)” value is 45.7.

Take B12: the “Binding to human FLT3 (MFI ratio to IgG1 control)” value is 96.

The target of the next assay is T6, CSF1R on Ba/F3 cells (UniProt P07333 20-972, limits assumed).
T6 construct: whole, on cells
Briefly: flow cytometry, cell surface binding to Ba/F3 pMIY cells expressing CSF-1R, MFI ratio normalized to IgG1, mean ± s.d. of n=3.
On to B1, for which the binding result is on record as “no binding”.

Another assay deals with T3, recombinant human FLT3 protein. Briefly: ELISA on recombinant human FLT3, normalized to BSA control. The procedure:
as §1
As to B13, the Kd is 3.31 mg/L.

For B14, the Kd came to 0.0319 mg/L.

Take B15: the Kd amounted to 0.0284 mg/L.

B16: the Kd came out at 0.0115 mg/L.

The next assay has as its target T7, human CD64 (high affinity Fc receptor, FCGR1) on cells (human, UniProt P12314 16-374).
T7 construct: whole, on cells; also called hCD64; human FCGR1
Briefly: flow cytometry, cell surface binding to Ba/F3-pMIY cells expressing CD64, specific MFI, mean ± s.d. of n=3.
For B1, the binding result is “binds”.
